In the Human Domainome abundance scans (Beltran et al. 2025):

B1: Tyrosine-protein kinase Lck, residues 63 to 120; numbered along this chain, P06239 (parent)
chain: DNLVIALHSYEPSHDGDLGFEKGEQLRILEQSGEWWKAQSLTTGQEGFIPFNFVAKAN

Variants of: B1
Experiment: abundance fitness (aPCA) (normalised: wild type 0, dead -1); higher = more abundant; growth selection in yeast, the domain comes from the species named
Details: Homo sapiens

Abundance fitness: each site, then its substitutions
E24: N -0.608 | F -0.997 | Q -0.385 | S -0.506 | I -0.758 | K -0.82 | G -0.725 | A -0.357 | C -0.628 | H -0.774 | Y -0.829 | D -0.095 | P -0.891 | V -0.835 | W -0.704 | R -0.902 | T -0.754 | L -0.999 | M -0.673
L26: G -0.704 | V -0.781 | F -0.28 | I -0.648 | E -0.596 | W -0.864 | H -0.728 | Q -0.572 | N -0.787 | C -1.28 | S -0.84 | Y -0.929 | A -0.987 | M -0.126 | R -0.726 | K -0.919 | P -0.909
D17: P -0.762 | A -0.006 | G -0.042 | V -0.111 | R -0.009 | L -0.116 | W -0.083 | H 0.011 | F -0.229 | M -0.022 | E 0.063 | K 0.051 | T -0.255 | C -0.022 | S -0.045 | N -0.177
H14: P -0.793 | Q -0.079 | G -0.059 | F -0.187 | E -0.051 | R 0.039 | D -0.219 | K 0.072 | S -0.031 | W -0.328 | V -0.104 | Y -0.165 | A 0.027 | L -0.267 | I -0.118 | C -0.033 | N 0.12
P12: E -0.755 | G -0.497 | R -0.705 | N -0.557 | V -0.717 | S -0.366 | Q -1 | K -0.471 | F -1.08 | I -0.506 | T -0.529 | L -0.913 | H -0.846 | Y -0.525
S32: A -0.067 | D -0.07 | H -0.302 | I -0.226 | G -0.071 | E 0.182
K22: W -0.928 | C -0.303 | M -0.514 | P -0.801 | G -0.674 | H -0.593 | A -0.174 | I -0.526 | R -0.252 | F -0.603 | L -0.625 | N -0.777 | T -0.187 | Q -0.371
E30: R -0.285 | C -0.265 | H -0.247 | A -0.115 | T -0.293 | G -0.21 | F -0.45 | M -0.278 | L -0.601 | I -0.586 | Y -0.362 | P -0.752 | K -0.248 | W -0.503 | V -0.17 | Q -0.161 | D -0.087
Q25: Y -0.047 | N 0.069 | I -0.181 | K 0.09 | T 0.078 | E -0.021 | A -0.165 | V -0.017 | S -0.053 | M 0.022 | D -0.357 | W -0.169 | H -0.143 | C -0.096 | P -0.276
Q31: Y -0.234 | V -0.354 | I -0.552 | C -0.097 | K 0.003 | D -0.011 | R 0.054 | F -0.5 | T -0.291 | L -0.707 | P -0.235 | A 0.032 | H -0.301 | W -0.161 | E 0.025
G23: P -1.01 | W -0.648 | I -0.79 | D -0.477 | K -0.792 | T -0.917 | E -0.823 | L -0.832 | N -0.066 | Y -0.655 | M -0.792 | C -0.829 | S -0.635 | F -0.573 | H -0.397 | V -1.04 | Q -0.903
I28: H -1.03 | F -0.977 | K -0.903 | R -0.874 | Y -0.459 | P -0.885 | C -0.658 | Q -0.924 | V -0.108 | S -0.645 | M -0.662 | L -0.074 | G -0.754 | N -0.585 | A -0.554 | D -0.833 | W -0.941 | E -0.969 | T -0.683
S13: E -0.096 | M -0.026 | A -0.177 | Y -0.18 | C -0.047 | N -0.061 | F -0.412 | V -0.097 | Q -0.034 | D -0.062 | K 0.171 | G -0.251 | I -0.215 | H -0.174 | P -0.358 | T 0.047
G16: E -0.247 | S -0.174 | I -0.322 | A -0.366 | C -0.241 | M -0.259 | V -0.328 | F -0.309 | K -0.362 | H -0.114 | Y -0.218 | T -0.152 | P -1.03
F20: Y -0.756 | G -0.921 | I -0.47 | W -1.04 | H -0.836 | C -0.541 | N -0.7 | M -0.293 | T -0.406 | K -0.705 | S -0.949 | Q -0.825 | A -0.52 | D -0.845 | P -0.818 | L -0.411 | V -0.222 | R -0.976
L18: M -0.295 | T -0.714 | K -0.946 | D -0.779 | S -0.884 | Y -0.725 | V -0.441 | E -0.757 | A -0.591 | C -0.898 | I -0.176 | W -0.978 | G -0.717 | Q -0.876 | H -0.732 | N -0.722 | F -0.449 | R -0.86
G19: L -0.604 | V -0.47 | A -0.039 | Q -0.256 | F -0.567 | K -0.108 | Y -0.55 | M -0.31 | I -0.538 | T -0.375 | C -0.16 | N -0.397 | D -0.648 | P -0.16 | W -0.823 | R -0.142 | H -0.299 | E -0.393
R27: W -0.44 | K -0.154 | L -0.056 | E -0.022 | P -0.914 | Y -0.193 | M -0.309 | D -0.421 | S -0.465 | N -0.471 | H -0.049 | F -0.448 | T -0.24 | I -0.162 | C -0.208 | G -0.881 | V -0.062
E21: Q 0.007 | V 0.022 | F -0.515 | W -0.481 | P -0.914 | L -0.11 | D -0.205 | N -0.248 | A -0.062 | M -0.134 | T -0.129 | G -0.349 | H -0.001 | S -0.042 | R -0.052 | Y -0.415
L29: H -0.184 | D -0.852 | T -0.283 | S -0.44 | M -0.315 | Q -0.401 | F -0.527 | R -0.591 | A -0.645 | W -0.87 | Y -0.227 | P -1.05 | C -0.441 | K -0.325 | I -0.339 | G -0.734
D15: Y -0.071 | W -0.461 | V -0.273 | G -0.196 | R -0.053 | Q -0.02 | F -0.148 | A -0.046 | H -0.071 | T -0.124 | M -0.225 | L -0.106 | C -0.196 | P -0.075 | I -0.225 | K 0.111
